From patent US9206242B2, “Application of actin-binding protein to disease associated with cell motility” (NATIONAL UNIVERSITY CORPORATION NAGOYA UNIVERSITY, priority 2005, dated 2015)
Blank lines part the entries; values can stand above or below the molecule they belong to.

Key:
[1] = test system: phosphorylation of Girdin; test: EGF-induced phosphorylation of endogenous Girdin in COS7 cells (immunoprecipitation, Western blot with anti-P-Girdin antibody); format: cell-based; conditions: EGF 50 ng/ml 15 min, PD98059 50 μM
Experimental: Immunoprecipitates with anti-Girdin antibody were subjected to Western blot analyses with anti-P-Girdin and anti-Girdin antibodies. Activation of Akt was monitored by Western blot analyses with anti-phospho Akt antibody.
COS7 cells were transfected with either control or Akt siRNAs, and incubated for 48 hrs. Cells were then stimulated with EGF for 30 min and the phosphorylation of Girdin was analyzed as described in FIG. 2e.
Next, whether the anti-P-Girdin Ab can detect the endogenous Girdin phosphorylated in response to external stimuli that physiologically activate endogenous Akt was given consideration to. […] Furthermore, the phosphorylation of Girdin was inhibited when cells were treated with the PI3K inhibitors LY294002 and Wortmannin, but not with the mitogen-activated protein kinase kinase 1 (MEK1) inhibitor PD98059. It has therefore been concluded that the phosphorylation of Girdin is induced by EGF in a PI3K-dependent manner. […] Moreover, Girdin phosphorylation was undetectable in the cells transfected with Akt small interfering RNA (Akt siRNA). These findings confirmed that Akt activation is necessary for Girdin phosphorylation.

[2] = biological target: F-actin; test: F-actin cosedimentation assay; format: binding
Experimental: A fixed amount of GST-CT2 was mixed with various amounts of F-actin, followed by ultracentrifugation. Amounts of the free and bound GST-CT2 were quantified, and the percentage of bound GST-CT2 was plotted against the concentration of F-actin, and the Kd value was calculated by Scatchard analysis.
GST-CT was phosphorylated by Akt in vitro (cf. FIG. 6d, (b)) and was subjected to an actin cosedimentation assay. A fixed amount of GST-CT was phosphorylated in vitro and mixed with various amounts of F-actin, followed by ultracentrifugation. The amount of phosphorylated GST-CT bound to F-actin in the pellet fraction was monitored by Western blot analyses with anti-P-Girdin antibody.
F-actin cosedimentation assays were performed according to the manufacturer's protocol (Cytoskeleton). […] The cosedimented proteins were resolved by SDS-PAGE and detected by either Coomassie Brilliant Blue (CBB) staining or Western blot analyses using anti-GST antibody (Cell Signaling Technology) or anti-phospho Girdin Ab. For quantitative analyses, a fixed concentration of GST-Girdin CT2 (1 μM) was mixed with increasing amounts of F-actin (0-2.5 μM) in polymerization buffer and incubated at room temperature for 30 min. […] Protein bands were detected by CBB staining, and scanned and quantified using the software program WinROOF (Mitani Corp., Fukui, Japan).

[3] = Protein-lipid overlay assay (PIP-Strip), PI(3)P; format: binding; conditions: 4° C.
Experimental: (§1) The lipid binding of both GST-CT and GST-CT ΔPB was detected using anti-Girdin antibody, whereas that of phosphorylated GST-CT was detected by anti-P-Girdin antibody. The various lipids spotted on the membrane are indicated in (d).
(§2) GST fusion proteins were expressed in DH5 ? or BL21-CodonPlus (Stratagene) cells and purified using conventional methods. Binding of the purified GST-CT to phospholipids was examined at 4° C. using a PIP-Strip (Echelon Bioscience) according to the manufacturer's protocol. Bound GST-CT proteins were detected with either anti-Girdin or anti-phospho Girdin antibodies.

[4] = Protein-lipid overlay assay (PIP-Strip), PI(4)P; format: binding; conditions: 4° C.
Experimental: as §1, §2

Molecule: COc1cccc(-c2cc(=O)c3ccccc3o2)c1N [PD98059]
- phosphorylation of Girdin [1]: not

- Kd ([2]; GST-CT2 1 μM, F-actin 0-2.5 μM, Scatchard analysis, read-out: dissociation constant (Kd) for F-actin): 1030 nM
B1: GST-CT2: purified glutathione S-transferase (GST)-fused CT2, C-terminal half of the Girdin CT domain (protein)
chain: GEFSLLHDHEAWSSSGSSPIQYLKRQTRSSPVLQHKISETLESRHHKIKTGSPGSEVVTLQQFLEESNKLTSVQIKSSSQENLLDEVMKSLSVSSDFLGKDKPVSCGLARSVSGKTPGDFYDRRTTKPEFLRPGPRKTEDTYFISSAGKPTPGTQGKIKLVKESSLSRQSKDSNPYATLPRASSVISTAEGTTRRTSIHDFLTKDSRLPISVDSPPAAADSNTTAASNVDKVQESRNSKSRSREQQSS
modifications: left off: a dimerising Fc or GST
notes: purified glutathione S-transferase (GST)-fused CT2, C-terminal half of the Girdin CT domain

- binding to PI(3)P [3]: bound to neither
- binding to PI(4)P [4]: bound to neither
B2: phosphorylated GST-CT: purified GST-CT phosphorylated by Akt in vitro (protein)
chain: IMDQYKFYDPSPPRRRGNWITLKMRKLIKSKKDINRERQKSLTLTPTRSDSSEGFLQLPHQDSQDSSSVGSNSLEDGQTLGTKKSSMVALKRLPFLRNRPKDKDKMKACYRRSMSMNDLVQSMVLAGQWTGSTENLEVPDDISTGKRRKELGAMAFSTTAINFSTVNSSAGFRSKQLVNNKDTTSFEDISPQGVSDDSSTGSRVHASRPASLDSGRTSTSNSNNNASLHEVKAGAVNNQSRPQSHSSGEFSLLHDHEAWSSSGSSPIQYLKRQTRSSPVLQHKISETLESRHHKIKTGSPGSEVVTLQQFLEESNKLTSVQIKSSSQENLLDEVMKSLSVSSDFLGKDKPVSCGLARSVSGKTPGDFYDRRTTKPEFLRPGPRKTEDTYFISSAGKPTPGTQGKIKLVKESSLSRQSKDSNPYATLPRASSVISTAEGTTRRTSIHDFLTKDSRLPISVDSPPAAADSNTTAASNVDKVQESRNSKSRSREQQSS
modifications: left off: a dimerising Fc or GST
notes: purified GST-CT phosphorylated by Akt in vitro
- affinity for F-actin after phosphorylation by Akt ([2]; GST-CT phosphorylated in vitro, detected with anti-P-Girdin antibody): did not attenuate
